These results are taken from the supplement of paper PMC12042874.

± gives the uncertainty stated by the source.

The nature of this data set: amyloid nucleation score (Sup35N fusion, yeast selection) (log enrichment); library NNK1; higher = more nucleation; inactive = no reads after selection. In outline: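 For the nucleation score, DiMSum gave the log enrichment of output over input reads, centred on the mode score of non-aggregating sequences. Psi-negative yeast expressing Sup35N fused to peptides of 20 random codons were induced with 100 μM copper sulfate for 24 hours and grown 7 days at 30°C on medium lacking adenine and uracil. Input and output plasmid inserts were Illumina-sequenced, and sequences with under 100 input reads were excluded.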
Regarding SSTLFMKSYIFDPQKLNSPP, the amyloid nucleation score was determined as 0.375 ± 0.42. Consider DYMDSCGYVDSATRYKVSEM, for which the amyloid nucleation score is -0.241 ± 1.1. In turn, ILMFWSPVGSRLTLSTSKLQ showed an amyloid nucleation score of -0.234 ± 1.6. The value for YKGVGPIVIFIQWVYITVNN was 4.1 ± 0.11. Turning to RMYIHMYS, the amyloid nucleation score was 1.32 ± 0.33. The substance PFSVWSPPMMDPVHNIFWVR yielded an amyloid nucleation score of -0.203 ± 0.49. In turn, GVTYKPYGVSNW had an amyloid nucleation score of -0.616 ± 0.69. The substance MFHSYVSLGLCKW displayed an amyloid nucleation score of 0.371 ± 0.84. The value for TACPNSGNFERYGHYRSSSA was 1.12 ± 0.58; that for YRGLGFVERESRDRG was -0.418 ± 0.8; that for QHHMVEIWPSDECVEWLVSS was -0.034 ± 0.22. The substance KVLLIRWDLLC yielded an amyloid nucleation score of 0.291 ± 0.46.

Regarding TLRLAREGWWEWKHVSRGEY, the amyloid nucleation score was -0.033 ± 0.26.

Take NFLNGLMLTSRVRKFLASGY: the amyloid nucleation score was -0.161 ± 0.6. KGLCDNVMDLVRLKGGSEAG came in with an amyloid nucleation score of 0.443 ± 0.42. The substance GMEFMIMGNLVITGVIDKCH returned an amyloid nucleation score of -0.262 ± 0.39. In turn, ELKPKAFVVLSDHRHGYKRQ registered an amyloid nucleation score of -0.076 ± 0.97. The result for ERAKRSY reads 3.04 ± 0.069; that for PYIRVRLFMVVY, 0.659 ± 0.56; that for YLLLGYSHYQMNVLFNTRQS, “inactive”. RDHTIRPLWIAGSHMQFLNR had an amyloid nucleation score of 0.477 ± 0.34. With GSHNAR, the amyloid nucleation score came out at 0.086 ± 0.97. The substance RYCVHIWRCDSLNHHN came in with an amyloid nucleation score of 0.349 ± 0.41.

In the case of SMWKWDQKGKDNGTKNNKRL, the amyloid nucleation score was -0.939 ± 0.8. The value for YCWFFMLWEYTCWLVF was 0.17 ± 0.28. As to YPSCAGVWFKHNRLFFV, the amyloid nucleation score was found to be 0.096 ± 0.79.

On to KMTCSPSH, for which the amyloid nucleation score turned out to be 0.867 ± 0.88.

With SSFQIRVSVLRRHCISGLIY, the amyloid nucleation score is 1.01 ± 0.79. Regarding CVSYNLFLWSYFKRWSNRTC, the amyloid nucleation score is 0.141 ± 0.79. Turning to KVPYLVDYISLVFFVFKVLF, the amyloid nucleation score was -0.388 ± 0.34.

As for FRSVGVYAISNLYGHSRYFS, the amyloid nucleation score is -0.533 ± 0.42. As for CYLACLLQTHYND, the amyloid nucleation score is -1.18 ± 2.7. Turning to NILCTLPSIGILSAI, the amyloid nucleation score is -0.249 ± 0.37. Consider IETVLIVAY, for which the amyloid nucleation score came to 0.355 ± 0.53.

For TNIALLV, the amyloid nucleation score stood at 0.847 ± 0.42. The value for GQAWKDAVQNYDMLAYMLKG was -0.375 ± 0.54.

As to YISNTRRLLQMIVCVMKSYG, the amyloid nucleation score entry is “inactive”. Regarding FKYALKTSCLLIVQDGGSMR, the amyloid nucleation score was -0.023 ± 1.4. The value for RQTLEKF was -0.168 ± 0.28; that for LHTMCGK was 0.03 ± 0.97. LVTFNDSQLSTWASLGLNS displayed an amyloid nucleation score of -0.003 ± 0.46. Regarding ILWLVMWVWTSRFVRCRRHS, the amyloid nucleation score is -1.94 ± 2.4. On to RLVNPRDCKFNDTRTFCSRR, for which the amyloid nucleation score is 0.118 ± 0.52. Substance KKPQSGSCTRLSSESYKSVY had an amyloid nucleation score of 0.464 ± 0.82. The substance HIMYSLKASSHWSPIVFSHH came in with an amyloid nucleation score of 0.669 ± 0.59.

On to TIDKNNMESFITGFFGVRIL, for which the amyloid nucleation score stood at 1.3 ± 0.4. Take ALLIAY: the amyloid nucleation score was -0.992 ± 0.59.

WEVRGHPSGLMEVRDLGVRF had an amyloid nucleation score of 0.249 ± 0.59. Regarding TTWVVFFEPGAV, the amyloid nucleation score is -0.297 ± 0.84. In the case of NPLHGARFLIGNVFIIRNFK, the amyloid nucleation score stood at 5.52 ± 0.073.

On to ILELGGCLVYYRGN, for which the amyloid nucleation score was 0.087 ± 0.69.

GEIGKKNY: the amyloid nucleation score was 1.2 ± 0.35.

Turning to WSIEWFYSMSYARIDME, the amyloid nucleation score was -1.23 ± 0.79. In turn, SIVETAVVSKYVERSYGQEG yielded an amyloid nucleation score of -0.437 ± 0.36. In turn, WRTARFSGKF registered an amyloid nucleation score of -0.048 ± 0.4. In turn, FSVYVGVILCVSATVDVWAC displayed an amyloid nucleation score of 1.87 ± 0.23.

For EHFMSTCKPPDGE, the amyloid nucleation score was 0.927 ± 0.84.

In turn, AIIERADLSGMPLFSGFPGD registered an amyloid nucleation score of -0.148 ± 0.8. The value for DNRLEYSAGLVRVTRDAKGE was -0.106 ± 0.97. The value for CGVNLKNLLTMLPDIGLHAV was 0.227 ± 0.25; that for DMRYSRSCYTGCTDYYTCLG was -0.546 ± 0.4; that for SCLPGPKRFL was 0.496 ± 1.2.

The substance IFSENRDVGNVFSVGQIVIF yielded an amyloid nucleation score of 3.72 ± 0.079.

HPFYIFAVYIFPYHCLSCSL displayed an amyloid nucleation score of 0.331 ± 0.33.

On to FMTSDPYVLIHQALVRINEY, for which the amyloid nucleation score was found to be 4.58 ± 0.095. In turn, MKNFPLYSCP displayed an amyloid nucleation score of -0.66 ± 0.69. The value for CDSTVMRGLYCGRVVYSLFV was 0.721 ± 0.47. The value for MMGWV was -0.619 ± 0.48. LPDIGCFPRTIGCMTQAECG returned an amyloid nucleation score of -0.381 ± 1.

Regarding NNLILPGWM, the amyloid nucleation score is -0.612 ± 0.55. Substance DSYWILSLLWGL returned an amyloid nucleation score of -0.369 ± 0.19. The value for HGLLHQVSVMPGIPSMAFNI was -0.016 ± 0.68; that for LRTMGISCDWETFDLDINKG was “inactive”.

Substance FNLWIP yielded an amyloid nucleation score of 2.13 ± 0.17. For the substance NCIPALHEYVCMRR, the amyloid nucleation score was determined as 0.282 ± 0.54. The result for TYKFGYVHVDTFMTVLMHTL reads -0.169 ± 0.31. The result for GDANLGKQLWRGWNVG reads 0.228 ± 1.2; that for VGSHVRREFCELVYRS, -0.303 ± 0.44. The result for TVLSRVFWQRDGFVIAQSDG reads “inactive”.

For the substance DEITLMLA, the amyloid nucleation score turned out to be 0.155 ± 0.35. WRVYQSFGDLAVCTF showed an amyloid nucleation score of 0.326 ± 0.45. The substance ADVQWRHRTGISSSIVRSGA returned an amyloid nucleation score of 0.822 ± 1.

Take GFNIDT: the amyloid nucleation score was determined as 0.689 ± 1.2. NVILFNYLREILRLCYMACM: the amyloid nucleation score is 0.758 ± 0.81.

In the case of IVRQYANLGRCCRTGVVYFQ, the amyloid nucleation score was 0.386 ± 0.63.

As for KLSGFKFEVTCDGHEFWGHP, the amyloid nucleation score turned out to be 1.08 ± 0.54.

As to LSYKIKDT, the amyloid nucleation score was 0.626 ± 0.72. FIISSTQPRCRAPLTS: the amyloid nucleation score is -0.165 ± 0.56. The substance GVCRDAVGGVTYDK yielded an amyloid nucleation score of -0.363 ± 1.5. The result for VLIFAKFYELPGDRRFGTGW reads 3.87 ± 0.11; that for DNYGCYCL, 0.802 ± 0.72.

For the substance RRTIYASLRLY, the amyloid nucleation score was 0.066 ± 0.29.

As for QTRRVVHSGN, the amyloid nucleation score is 0.284 ± 0.81. Turning to MFTWEL, the amyloid nucleation score was determined as 0.436 ± 1.2.

CFEDRYSLRCGM yielded an amyloid nucleation score of -0.397 ± 0.34. The substance FQHTLGRKA showed an amyloid nucleation score of 0.438 ± 0.68.

The substance VNYSNWFSMADSFRSRSFSV registered an amyloid nucleation score of -0.104 ± 1.1. The value for KCAWNQVNDSNLVAYRASC was 5.13 ± 0.097; that for LGNCTGRRHV was 2.42 ± 0.36; that for YHSSYVK was -1.36 ± 2.7.

Take SSTGAVLIHNCTTRSVDLSG: the amyloid nucleation score is 0.45 ± 0.69. Substance GQLLCWVASNYEGFNWVYKI registered an amyloid nucleation score of -0.161 ± 0.53. Regarding VIMPGRYVNLAHRLDACSVH, the amyloid nucleation score entry is “inactive”. In turn, SATIKYHYFLTFFNVDRFCR returned an amyloid nucleation score of 2.07 ± 0.46.

For the substance VGHNGIFYC, the amyloid nucleation score was -0.063 ± 0.29.

Substance YRGKRDKVVGSMMCMWRT had an amyloid nucleation score of 0.518 ± 0.52. FDSLVSREFVP came in with an amyloid nucleation score of -0.887 ± 1.5. For PCLVSCHPGADAYLYDNLEV, the amyloid nucleation score is -0.856 ± 2.4. The value for DFTVA was 0.596 ± 0.78; that for EFRQMVVSSGSDERGERDKG was 0.052 ± 0.29; that for LLALYCNDPKLEDSTLREFN was 1.15 ± 0.71. LARLLNGQVGNDYCPGVPGG: the amyloid nucleation score was -0.543 ± 0.4.

LISRIS came in with an amyloid nucleation score of 0.303 ± 1.

QVHPPMTTGPC registered an amyloid nucleation score of 0.291 ± 0.53.

The substance EFWWIDICSGCYLFF returned an amyloid nucleation score of 6.5 ± 0.074. Turning to ACEELVQIVVYCDSFMFSPS, the amyloid nucleation score came to 1.46 ± 0.52.

PLKFTSSMSG: the amyloid nucleation score is -1.23 ± 0.51.

RAHNKISDDTRAFMGSIFSE gave an amyloid nucleation score of -0.05 ± 1.4. As for CWAKEFFNNESIRG, the amyloid nucleation score was 0.077 ± 0.49. Regarding GSADMRLDLQVVGCMTCRFE, the amyloid nucleation score stood at 0.386 ± 1.1. LSQLN came in with an amyloid nucleation score of -0.116 ± 0.26.

Turning to YMVLS, the amyloid nucleation score was 0.9 ± 0.85. For the substance NVFLVRAYLMENVHFYDFMC, the amyloid nucleation score was found to be 4.54 ± 0.14. The substance MITWKGLFPAGVGFLRLHA gave an amyloid nucleation score of -0.024 ± 0.43. The result for CDCTSRGK reads -0.407 ± 1.5. The result for FSMIMSLDVL reads -0.397 ± 0.4; that for HSGYTYDRRYPCNYDFSIQV, “inactive”. The value for FRFGTA was 0.39 ± 0.49. The substance RFHWACKVYLSNYMV yielded an amyloid nucleation score of 0.69 ± 0.25. IVGSVVRGMGLVIIRSTCFW came in with an amyloid nucleation score of 3.15 ± 0.18. For the substance DLSFLRNCSLYSLLGVIG, the amyloid nucleation score result is “inactive”. The result for WGSASRLKVTLRRVRYTTTG reads 0.813 ± 0.71; that for YLIKCTTIAGRTGYSVTMRD, -0.341 ± 1. For the substance ACSCDALRSNLAIIKRESRV, the amyloid nucleation score was -0.766 ± 2.4. KHSGFQTCVNYLD returned an amyloid nucleation score of -0.194 ± 0.42.

HLGLSNPFMMSFHV: the amyloid nucleation score is -0.189 ± 0.34. Take SVLTGNVTGDDGLCKSSIYA: the amyloid nucleation score stood at 0.515 ± 0.34.

As for TFVSL, the amyloid nucleation score was 0.332 ± 0.49.

As to GVVGYGIWHSLGVRLIQNLC, the amyloid nucleation score came out at 0.389 ± 0.93. The result for SRCCRYLKHVRSIGSVQVAS reads 1.16 ± 0.32; that for LFFQANKLLVIYNCRIYTTF, 6.32 ± 0.07. Consider ICFFGLDVNFTRLSTVTRFT, for which the amyloid nucleation score was 2.66 ± 0.16.

As to GFVEVNTCLKEVSLPSNMPS, the amyloid nucleation score was determined as 0.714 ± 0.5.
